Target: 2P-IRS-1 (bisphosphorylated IRS-1 peptide), labeled with Cy5
Assay: MST; Monolith NT.115; 100 nM Cy5-labeled 2P-IRS-1, unlabeled protein serially diluted; 25 °C; n=3

Substance	Kd [µM]
NEDD8-SHP2 conjugation (SHP2 neddylated in the in vitro neddylation assay) (from UniProt Q06124 1-593; Q15843 1-76) (complex)	> 1000
SHP2 WT recombinant protein (Src homology region 2-containing protein tyrosine phosphatase 2) (from UniProt Q06124 1-593) (enzyme)	473
